Data on 72 sequences can be found in the supplement of paper PMC10567573.

± gives the standard deviation.

This series can be described thus: protein stability index of a GFP-peptide fusion (GPS, HEK-293T) (PSI 1-6); higher = more stable.
Setting [1] is: treatment: DMSO, c terminus: a fixed tail appended.
Where [2] appears, read: treatment: MLN4924 1 uM, 8 h, c terminus: a fixed tail appended.
Where [3] appears, read: treatment: DMSO, c terminus: native.
Where [4] appears, read: treatment: MLN4924 1 uM, 8 h, c terminus: native.
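Further: 24-mer peptide tiles fused after GFP, lentivirally expressed, FACS-sorted into six equal bins by GFP/DsRed ratio, decoded by Illumina sequencing, PSI is the read-weighted mean bin number.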

On to CMDQERLRRESTSQKEMDKAETKT [FCHO1], for which the protein stability index runs as follows: under setting [1], 5.15 ± 0.65; under setting [2], 5.21 ± 0.14.
For the sequence CPHCGDRTFYDPEPILCPCFMPN [PRAME], the protein stability index reads like this: under setting [3], 3.98 ± 0.25; under setting [4], 3.99 ± 0.48.
For the sequence CPWEPQKQPPWEFLQVLEPGARGL [SPAG8], the protein stability index under setting [1] came to 3.11 ± 0.24 and the protein stability index under setting [2] is 3.36 ± 0.11.
For CQALPYGPGYWMCCHRSQKGFPGC [FBXO34], in that order: 2.35 ± 0.44 and 2.23 ± 0.32.
For CRKAKEIRKERKRLKLMQQNPAGE [ATE1], in that order: 4 ± 0.25 and 4.37 ± 0.2.
For CSGVACLVKDNPQRSYFLRIFDIK [WASL], in that order: 2.16 ± 0.34 and 2.27 ± 0.7.
On to CSQGQQLATFSSDWEIQEDSRLMC [CCDC3], for which the protein stability index under setting [1] is 3.16 ± 0.073 and the protein stability index under setting [2] stood at 3.03 ± 0.55.
For CTLPQLAIAWCLRNEGVSSVLLGA [KCNAB2], in that order: 3.1 ± 0.63 and 2.89 ± 0.36.
As for DAERDGVKVPTTLAEYCVKTKAPA [CDC34], the protein stability index turned out to be 5.13 ± 0.067 under setting [1] and 5.02 ± 0.26 under setting [2].
For DALRFTADVRSVLSRNLHQHRLW [CTDNEP1], the protein stability index worked out at 2.6 ± 0.48 under setting [3] and 2.99 ± 0.26 under setting [4].
For DDCSSTIVEDPQTKCEYMLNSMPK [ESRRG], the protein stability index is 4.87 ± 0.29 under setting [1] and 4.95 ± 0.22 under setting [2].
With DDFRTKYQTEQSLRQLVESDINSL [KRT33B], the protein stability index is, setting by setting: under setting [1], 4.6 ± 0.2; under setting [2], 4.39 ± 0.12.
For DDGTYSQVQCHSYTGYCWCVTPNG [SMOC2], in that order: 2.48 ± 0.14 and 2.66 ± 0.47.
On the same counts, the results for DEALAIAALELLPRELFPPLFMAA [PRAME] are 2.78 ± 0.21 and 2.61 ± 0.55.
On the same counts, the results for DEALERCQILELLNAELEEKMMQE [CCDC89] are 5.17 ± 0.41 and 5.34 ± 0.22.
As for DEIRWKYHSDTTPKIIESQRPPH [IQUB], the protein stability index was found to be 4.25 ± 0.36 under setting [3] and 4.09 ± 0.29 under setting [4].
Consider DERIFSLTRRLAHGEELRVSARSR [HAGHL], for which the protein stability index stood at 4.1 ± 0.33 under setting [1] and 4.12 ± 0.32 under setting [2].
On the same counts, the results for DFHLSIHSDMAAIVKAMASPESGL [DVL3] are 2.87 ± 0.21 and 2.85 ± 0.24.
On the same counts, the results for DFIHRHCQDQNVPVENFFVKCNGA [SDE2] are 2.83 ± 0.088 and 2.95 ± 0.34.
On the same counts, the results for DFSVSLKASGKNKHFKVQLVDNVY [NCK2] are 2.27 ± 0.25 and 2.25 ± 0.19.
In the case of DFYREDEDEEEEEGGEGEKEGEGE [TRIM55], the protein stability index reads like this: under setting [1], 5.57 ± 0.57; under setting [2], 5.79 ± 0.084.
For DGQYMGVAFRGLKGKKLYPVVSAV [SPSB1], in that order: 2.36 ± 0.55 and 2.12 ± 0.48.
Consider DKDKSPESHKAKNESWIKSHFSRL [C10orf62], for which the protein stability index is, setting by setting: under setting [1], 3.46 ± 0.25; under setting [2], 3.48 ± 0.31.
For DKLALCHLELTRKLQDLIKDVLRY [FCHO1], the protein stability index is 2.9 ± 0.48 under setting [1] and 2.74 ± 0.43 under setting [2].
For DLAGLGSETPKSQVGTLLFRSRSR [CDC25B], in that order: 3.83 ± 0.35 and 4.11 ± 0.35.
On the same counts, the results for DLAYQLQVAKTKQQIEEQRVQVQV [FLOT1] are 3.4 ± 0.19 and 3.73 ± 0.22.
On the same counts, the results for DLDAKIREALVLRSVRVRLLLSFW [PLD5] are 3.52 ± 0.33 and 2.53 ± 0.86.
With DLEAKEVTPRTALLTWTEPPVRPA [TNXB], the protein stability index was 4.61 ± 0.14 under setting [1] and 4.53 ± 0.23 under setting [2].
On the same counts, the results for DLHRQFPFHEMFVSRGGHGQQDLF [TBC1D10A] are 2.73 ± 0.17 and 2.8 ± 0.34.
For DLIDVDLIRGSTFAKAKPEIPWTS [PHTF1], in that order: 2.25 ± 0.17 and 2.46 ± 0.22.
Consider DLLRNTHFRGVSLNLTRKLAQQLC [DYRK1B], for which the protein stability index is 2.35 ± 0.48 under setting [1] and 2.22 ± 0.3 under setting [2].
On the same counts, the results for DLPEVESLPRDRVLGFLIENFKGL [VPS39] are 3.27 ± 0.59 and 3.19 ± 0.34.
Take DMMVMGRKPDPMCVFTYVQSLYNH [SMTNL2]: the protein stability index by setting is: under setting [1], 2.28 ± 0.24; under setting [2], 2.2 ± 0.34.
On the same counts, the results for DNPLDRPLVGQDEFFLEQTKKKGV [NOP53] are 5.25 ± 0.3 and 5.37 ± 0.22.
On the same counts, the results for DPLANGCQGVSEAAHRLARRLYHL [PSD2] are 3.24 ± 0.18 and 3.52 ± 0.059.
On the same counts, the results for DPTNWLRCYYYEDTISTIKSVAWE [NCF4] are 2.12 ± 0.47 and 2.47 ± 0.13.
For DQDEGEWGLDQEQVFSLGDGVSGG [ZBED1], the protein stability index is, setting by setting: under setting [1], 5.57 ± 0.17; under setting [2], 5.42 ± 0.12.
DRGIKGDITPLMAAANGGHVKIVK [ANKRD17] registered a protein stability index under setting [1] of 4.42 ± 0.11 and a protein stability index under setting [2] of 4.38 ± 0.085.
On the same counts, the results for DRIATTDDTTAMASASSSATGSFS [MAGEA10] are 5.2 ± 0.11 and 5.28 ± 0.09.
On the same counts, the results for DRRKKIARMGFNASSMLRKSQLGF [DCAF4] are 2.67 ± 0.34 and 2.84 ± 0.13.
For DSEEELAAFCPQLDDSTVARELAI [RETREG3], in that order: 5.12 ± 0.28 and 5.24 ± 0.19.
On to DSGVGASLTRSNRHRLRWHSFQSS [DLC1], for which the protein stability index runs as follows: under setting [1], 3.03 ± 0.13; under setting [2], 3.04 ± 0.21.
Consider DSIKDEDRTSLATFHEGKHNISHM [WDFY1], for which the protein stability index stood at 4.66 ± 0.23 under setting [1] and 4.59 ± 0.28 under setting [2].
On the same counts, the results for DTMRQINKKGFWSYGPVILVVLVV [TOR1AIP2] are 2.49 ± 0.48 and 2.42 ± 0.37.
For DVLENAFAPLLDEQYDLATKRVRQ [GOLPH3], the protein stability index reads like this: under setting [1], 3.43 ± 0.26; under setting [2], 3.52 ± 0.5.
On the same counts, the results for DVYSFAIVIWGVLTQKKPFADEKN [RIPK4] are 2.61 ± 0.77 and 1.86 ± 0.072.
On the same counts, the results for EAAEGRNKNEVFYQCPDQMARNPA [FBXO3] are 5 ± 0.32 and 4.67 ± 0.52.
For the sequence EACKAFFKRTIQGSIEYSCPASNE [ESRRA], the protein stability index is, setting by setting: under setting [1], 2.98 ± 0.19; under setting [2], 3 ± 0.17.
For EADVNGLRRVLDELTLARTDLEMQ [KRT16], the protein stability index reads like this: under setting [1], 4 ± 0.35; under setting [2], 4.07 ± 0.094.
For EAEAADSGAVGARRFLLCLYLVGF [MFSD9], in that order: 2.79 ± 0.91 and 2.65 ± 0.71.
For EALAKQVASEMRFVQDLVRALEQE [DAPK3], in that order: 2.95 ± 0.25 and 3.09 ± 0.54.
In the case of EAQAFRALVQEKIQKRNQRQSGDR [WAS], the protein stability index was determined as 4.5 ± 0.12 under setting [1] and 4.5 ± 0.13 under setting [2].
Sequence EDENDLEELNNGEPQTEHQQESES [MIA2] gave a protein stability index under setting [1] of 5.57 ± 0.21 and a protein stability index under setting [2] of 5.74 ± 0.12.
For EDLKGHVAETSGETIQGFWLLTKI [TPRG1], in that order: 2.37 ± 0.59 and 2.07 ± 0.3.
On the same counts, the results for EDVLLLNFEEMRALLDSLPPPVES [KLHL14] are 3.34 ± 0.24 and 3.57 ± 0.41.
On the same counts, the results for EEDCAWSQELPPPDPGPSPEASHL [ZNF263] are 5.44 ± 0.25 and 5.58 ± 0.25.
As to EEGSANRRPEDQELESLSAIEAEL [CHGA], the protein stability index came to 5.59 ± 0.14 under setting [1] and 5.45 ± 0.095 under setting [2].
Consider EEHTTILRPSYTGLSSSSARFLSR [CDC14A], for which the protein stability index is, setting by setting: under setting [1], 3.57 ± 0.12; under setting [2], 3.7 ± 0.19.
On the same counts, the results for EEIKFYELGEEAMEKFREDEGFIK [KCNA1] are 4.71 ± 0.36 and 4.84 ± 0.14.
For EELEDSKALLYLPIAPEVEDPEEN [RBBP5], in that order: 5.5 ± 0.6 and 5.24 ± 0.42.
On the same counts, the results for EEVPEAYVDIHTGLSGSGVAFVCA [PYCR3] are 2.76 ± 0.53 and 2.66 ± 0.43.
Take EFGALMSNYSLPPPLPTYHVLLEG [TRIM29]: the protein stability index under setting [1] was 2.7 ± 0.98 and the protein stability index under setting [2] is 2.15 ± 0.33.
For EFIQEIRRQLEACQRERAFSVKFE [OAS1], in that order: 2.29 ± 0.31 and 2.27 ± 0.56.
For EFKAAFDMFDADGGGDISVKELGT [TNNC2], in that order: 4.16 ± 0.13 and 4.63 ± 0.11.
For EFMKTLEKTGPQLTSRIKGDWIGL [DENND6A], in that order: 2.06 ± 0.23 and 2.23 ± 0.25.
In the case of EGDVLDTLEALGYKGPLLEEQALT [FAM98B], the protein stability index runs as follows: under setting [1], 4.36 ± 0.34; under setting [2], 4.35 ± 0.12.
For EGFLFVFGGQDENKQTLSSGEKYD [GAN], in that order: 3.11 ± 0.28 and 3.73 ± 0.64.
For EGKTKKGVLEAPDTQVNPVGSVSV [FBXO34], in that order: 5.08 ± 0.17 and 5.14 ± 0.11.
On the same counts, the results for EGMDRWIKKIEEHAPGVPKILVGN [RAB40A] are 3.41 ± 0.18 and 3.21 ± 0.31.
EGSRSSGSNRSGSDRRKEKDPKAG [DVL3]: the protein stability index runs as follows: under setting [1], 5.38 ± 0.15; under setting [2], 5.5 ± 0.2.
For EGYEFCHNRKVLTIFSASNYYEVG [PPEF2], in that order: 2.31 ± 0.44 and 2.05 ± 0.44.
For EGYQALYHAVVEPMLWNPSGTPKR [C22orf31], in that order: 2.39 ± 0.28 and 2.79 ± 0.61.
